Source: patent US20230136228A1 (LAMKAP BIO ALPHA, published 2023)

Legend:
[1] = target: T1, human CEACAM5 (carcinoembryonic antigen, CEA), cell surface (human, UniProt P06731 35-685); assay: flow cytometry, MKN-45 cells
T1 construct: whole, on cells; also called CD66e
T1 sequence (looked up): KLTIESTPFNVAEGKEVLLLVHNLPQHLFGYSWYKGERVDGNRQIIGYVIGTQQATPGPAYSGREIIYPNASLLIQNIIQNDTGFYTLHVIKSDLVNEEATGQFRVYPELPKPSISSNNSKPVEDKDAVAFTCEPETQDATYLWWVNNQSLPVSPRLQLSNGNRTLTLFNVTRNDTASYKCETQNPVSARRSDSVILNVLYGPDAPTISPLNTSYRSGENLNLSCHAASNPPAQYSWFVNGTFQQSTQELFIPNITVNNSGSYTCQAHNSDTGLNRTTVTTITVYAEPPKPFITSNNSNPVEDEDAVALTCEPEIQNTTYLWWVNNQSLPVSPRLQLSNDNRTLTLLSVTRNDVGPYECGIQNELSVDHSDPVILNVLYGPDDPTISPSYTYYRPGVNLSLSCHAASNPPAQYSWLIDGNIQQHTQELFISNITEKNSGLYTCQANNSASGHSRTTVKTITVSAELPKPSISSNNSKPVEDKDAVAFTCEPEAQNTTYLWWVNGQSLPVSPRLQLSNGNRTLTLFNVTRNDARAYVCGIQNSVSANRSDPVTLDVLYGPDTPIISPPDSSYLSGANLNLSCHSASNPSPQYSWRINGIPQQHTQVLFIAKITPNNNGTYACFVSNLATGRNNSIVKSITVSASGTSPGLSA
Excerpt: Examples of cells that can be used include CEACAM5-positive cell lines such as the gastric adenocarcinoma cell line MKN45 (expressing 155′000 CEACAM5 molecules per cell), or the pancreatic adenocarcinoma cell line HPAF-II (expressing 108′000 CEACAM5 molecules per cell) or the colorectal adenocarcinoma cell line LS174T (expressing 26′000 CEACAM5 molecules per cell) and CEACAM5-negative cell lines, such as the lung carcinoma cell line A549 and the MKN45 CEACAM5-knock out cell line generated by CRISPR-CAS9 methodology. Cell staining and binding assessment can be performed as described above. Binding of the bsAb of the invention at 200 nM, 1000 nM and 5000 nM is 40% and higher compared to binding of TCB2014 (see Table 4 and also FIGS. 11 and 14).

[2] = target: T2, human CEACAM3 (human, UniProt P40198 35-252); assay: flow cytometry, MFI on transfected PEAK cells divided by MFI on WT PEAK cells
T2 construct: whole, on cells
T2 sequence (looked up): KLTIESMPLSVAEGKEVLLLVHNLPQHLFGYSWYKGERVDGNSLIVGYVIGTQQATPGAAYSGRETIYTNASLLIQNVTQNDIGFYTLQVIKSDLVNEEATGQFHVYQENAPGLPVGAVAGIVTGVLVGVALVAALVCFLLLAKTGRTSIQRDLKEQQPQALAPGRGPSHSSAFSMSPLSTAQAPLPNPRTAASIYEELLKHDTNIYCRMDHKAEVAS
Procedure: (§1) Similarly, vectors encoding the full-length version of cyno CEACAM 5 and 6 are also used to express these proteins at the surface of PEAK and/or CHO cells. Non-transfected PEAK and/or CHO cells are used as negative control. Cells are harvested, counted, checked for viability and resuspended at 3×10⁶ cells/ml in FACS buffer (PBS 2% BSA, 0.1% NaN₃). 100 μl of the cell suspension are distributed in V-bottom 96-well plates (3×10⁵ cells/well). The supernatant is removed by centrifugation 3 minutes at 4° C., 1300 rpm and the cells incubated for 15 minutes at 4° C. with increasing concentrations of the antibody according to the invention. The antibodies carrying the anti-CEACAM5 arms to test are diluted in FACS buffer and the concentration range is 30 pM-500 nM. Cells are washed twice with cold FACS buffer and re-incubated for further 15 minutes at 4° C. with a compatible anti-human IgG secondary antibody. Cells are washed twice with cold FACS buffer and resuspended in 300 μl FACS buffer with 1:1500-diluted TOPRO-3 (Invitrogen). Fluorescence is measured using a FACSCalibur™ (BD Biosciences) or a Cytoflex Platform (Beckman Coulter). Dose-response binding curves are fitted using GraphPad Prism8 software. In the same manner, CEACAM1, CEACAM6 and other CEACAMs can be characterized.
(§2) For the bispecific antibodies AB17L3-1/N, AB71L3-1/N, AB72L3-1/N, AB73L3-1/N the MFI measured for binding to CEACAM5 transfected cells was found between 29000 and 41000 (Table 2). In contrast MFI found by using PEAK cells transfected with CEACAM 1,3,4,6,8 were found below 1000 with the only exception of a strong signal for AB72L3-1/N on CEACAM8 transfected cells. When MFI values obtained on transfected cells expressing any given CEACAM are divided by the values obtained on WT PEAK cells, “factors to PEAK WT” can be calculated (Table 3). With the exception of AB72L3-1/N, the antibodies of the invention are all specific to CEACAM5, as the “factor to PEAK WT” values are all below 2.0.

[3] = target: T1, human CEACAM5 (carcinoembryonic …); assay: as above
Procedure: as §1, §2

B1: AB73L3-1/N (bispecific antibody, human IgG1, kappa, lambda, L234A L235A)
heavy: EVQLVESGGGLVQPGGSLKLSCAASGFTFNTYAMNWVRQAPGKGLEWVGRIRSKYNNYATYYADSVKDRFTISRDDSKNTAYLQMNSLKTEDTAVYYCVRHGNFGNSYVSWFAYWGQGTLVTVSSASTKGPSVFPLAPSSKSTSGGTAALGCLVKDYFPEPVTVSWNSGALTSGVHTFPAVLQSSGLYSLSSVVTVPSSSLGTQTYICNVNHKPSNTKVDKRVEPKSCDKTHTCPPCPAPEAAGGPSVFLFPPKPKDTLMISRTPEVTCVVVDVSHEDPEVKFNWYVDGVEVHNAKTKPREEQYNSTYRVVSVLTVLHQDWLNGKEYKCKVSNKALAAPIEKTISKAKGQPREPQVYTLPPSREEMTKNQVSLTCLVKGFYPSDIAVEWESNGQPENNYKTTPPVLDSDGSFFLYSKLTVDKSRWQQGNVFSCSVMHEALHNHYTQKSLSLSPG
light 1: EIVLTQSPATLSLSPGERATLSCRASQSVNSNLNWYQQKPGQAPRLLIYHSNNRPHGIPARFSGSGSGTDFTLTISSLEPEDFAVYYCQQFDYFREYNTFGQGTKVEIKRTVAAPSVFIFPPSDEQLKSGTASVVCLLNNFYPREAKVQWKVDNALQSGNSQESVTEQDSKDSTYSLSSTLTLSKADYEKHKVYACEVTHQGLSSPVTKSFNRGEC
light 2: QTVVTQEPSLTVSPGGTVTLTCRSSTGAVTTSNYANWFQQKPGQAPRGLIGGTNKRAPGTPARFSGSLLGGKAALTLSGAQPEDEAEYYCALWYKQRWVFGGGTKLTVLGQPKAAPSVTLFPPSSEELQANKATLVCLISDFYPGAVTVAWKADSSPVKAGVETTTPSKQSNNKYAASSYLSLTPEQWKSHRSYSCQVTHEGSTVEKTVAPTECS
notes: Kappa-lambda body, lead optimization wave 2
EC50 [1]: 0.0278 µM
Top MFI value [1]: 921000 MFI
binding higher than TCB2014 (at 200 nM, 1000 nM and 5000 nM) [1]: ≥ 40%
Factor to PEAK WT [2]: 0.9 fold
Factor to PEAK WT [3]: 70.8 fold
